The results in this text go back to patent US20210187002A1 (OSAKA UNIVERSITY, published 2021).

In experiment [1] the target is T1, fusion protein containing the conserved region of RIFIN (PF3D7_1254800) and the transmembrane and … (Plasmodium falciparum).
T1 construct: also called fusion protein containing a conserved region
The experiment in a line: flow cytometry on transfected 293T cells. In general terms: Flow cytometry measures light scatter and fluorescence of single cells or particles in a stream.

The target of experiment [2] is leukocyte immunoglobulin-like receptor subfamily B member 1 (LILRB1) protein (human, UniProt Q8NHL6 24-650). The experiment in a line: flow cytometry on LILRB1 protein-expressing 293T cells, APC-labeled anti-His antibody.

B1: LILRB1-Fc fusion protein (Fc fusion)
chain: GHLPKPTLWAEPGSVITQGSPVTLRCQGGQETQEYRLYREKKTAPWITRIPQELVKKGQFPIPSITWEHTGRYRCYYGSDTAGRSESSDPLELVVTGAYIKPTLSAQPSPVVNSGGNVTLQCDSQVAFDGFILCKEGEDEHPQCLNSQPHARGSSRAIFSVGPVSPSRRWWYRCYAYDSNSPYEWSLPSDLLELLVLGVSKKPSLSVQPGPIVAPEETLTLQCGSDAGYNRFVLYKDGERDFLQLAGAQPQAGLSQANFTLGPVSRSYGGQYRCYGAHNLSSEWSAPSDPLDILIAGQFYDRVSLSVQPGPTVASGENVTLLCQSQGWMQTFLLTKEGAADDPWRLRSTYQSQKYQAEFPMGPVTSAHAGTYRCYGSQSSKPYLLTHPSDPLELVVSGPSGGPSSPTTGPTSTSAGPEDQPLTPTGSDPQSGLGRHLGV
notes: Made in 293T cells and purified with Protein A. For flow cytometry it was complexed with an APC-labeled anti IgG Fc antibody; not shown: Fc part
As for B1, the binding result in experiment [1] is on record as “no binding”.

B2: recombinant RIFIN protein (variable region of PF3D7_1254800 with His tag) (ligand)
chain: YETINAFIAKTIEELEGIPGITKLFGAKISQFVTPAVFRKPMSLVETILSEKKKLCLCAANKNELLCRGMNPNVPETLPKKIEVAVNEVLSSVNDTWATATTPTTFFTNP
notes: Used in solution, on plates and on latex or Luminex beads; also called RIFIN-1; RIFIN beads
In the case of B2, the binding result in experiment [2] was “binds”.
